Target: T1, FRα重组蛋白 (叶酸受体α, folate receptor α recombinant protein) (UniProt P15328 25-233, limits assumed)
T1 construct: Recombinant protein used for panning and ELISA (coated) and, after biotinylation (biotin:protein 20:1), on streptavidin sensors for BLI
Experiment: BLI (ForteBio Octet), biotinylated FRα on streptavidin sensor, scFv in solution

T1 sequence (P15328 25-233 limits assumed): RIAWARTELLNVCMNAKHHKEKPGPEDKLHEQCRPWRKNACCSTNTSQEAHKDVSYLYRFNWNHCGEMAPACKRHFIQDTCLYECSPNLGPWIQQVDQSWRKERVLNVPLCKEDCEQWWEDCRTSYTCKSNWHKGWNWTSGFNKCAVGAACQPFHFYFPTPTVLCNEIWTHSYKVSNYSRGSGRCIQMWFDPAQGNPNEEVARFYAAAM

Kd: 41.3 nM
koff: 0.00127 s⁻¹
kon: 30900 M⁻¹ s⁻¹
B1: FR ScFv (靶向叶酸受体α的单链抗体) (scFv)
scFv: QAQLLESGGGLVQPGGSLRLSCAASGFTFSSYAMSWVRQAPGKGLEWVSAISGSGGSTYYADSVEGRFTISRDNSKNTLYLQMNSLRAEDTAVYYCARRAVGRGWRFWGQGTMVTVSSGGGGSGGGGSGGGGSDIVLTQSPSASGTPGQRVTISCSGSSSNIGSNYVYWYQQLPGTAPKLLIYRNNQRPSGVSDRFSGSKSGTSASLAISGLRSEDEADYYCAAWDDSLSARVFGGGTKVDIKR
notes: Soluble scFv expressed in E. coli BL21 from pET22b (BamH I/Hind III), purified on a nickel column; about 28.32 kDa; Vector-derived residues at the N-terminus (pelB leader, cloning site) are not described; also called 叶酸受体α单链抗体; FRα单链抗体; not shown: C-terminal His tag from the pET22b vector (fused downstream of the gene)
